Test results from EP4650366A1.

How the values were obtained:
[1] = target: Human GARP-TGFβ1 complex (human) (UniProt Q14392); experiment: SPR (Biacore T200), method of Example 4
[2] = target: Human GARP-TGFβ1 complex (human) (UniProt Q14392); experiment: SPR (Biacore T200), antibody on Protein A chip, antigen in flow

Sequence of Human GARP-TGFβ1 complex (human) (Q14392 other isoform, or with tags, fused parts or gaps limits assumed, chain 1 of 2): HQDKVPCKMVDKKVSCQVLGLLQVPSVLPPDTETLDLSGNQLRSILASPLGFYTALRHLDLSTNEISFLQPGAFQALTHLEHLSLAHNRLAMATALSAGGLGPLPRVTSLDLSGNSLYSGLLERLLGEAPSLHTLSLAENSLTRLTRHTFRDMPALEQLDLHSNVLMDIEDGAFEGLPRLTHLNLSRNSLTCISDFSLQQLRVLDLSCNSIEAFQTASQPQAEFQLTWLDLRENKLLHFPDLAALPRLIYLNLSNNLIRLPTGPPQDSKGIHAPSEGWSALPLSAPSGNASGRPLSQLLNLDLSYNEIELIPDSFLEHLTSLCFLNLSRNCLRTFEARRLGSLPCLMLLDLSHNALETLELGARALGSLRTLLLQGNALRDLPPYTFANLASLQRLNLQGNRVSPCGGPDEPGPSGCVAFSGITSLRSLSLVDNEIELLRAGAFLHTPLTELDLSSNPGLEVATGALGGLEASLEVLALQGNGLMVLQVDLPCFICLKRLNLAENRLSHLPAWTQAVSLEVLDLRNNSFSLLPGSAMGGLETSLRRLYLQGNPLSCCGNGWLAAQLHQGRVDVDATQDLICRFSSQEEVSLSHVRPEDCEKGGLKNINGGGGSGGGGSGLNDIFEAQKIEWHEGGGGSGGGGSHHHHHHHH
Sequence of Human GARP-TGFβ1 complex (human) (chain, as listed by the source limits assumed, chain 2 of 2): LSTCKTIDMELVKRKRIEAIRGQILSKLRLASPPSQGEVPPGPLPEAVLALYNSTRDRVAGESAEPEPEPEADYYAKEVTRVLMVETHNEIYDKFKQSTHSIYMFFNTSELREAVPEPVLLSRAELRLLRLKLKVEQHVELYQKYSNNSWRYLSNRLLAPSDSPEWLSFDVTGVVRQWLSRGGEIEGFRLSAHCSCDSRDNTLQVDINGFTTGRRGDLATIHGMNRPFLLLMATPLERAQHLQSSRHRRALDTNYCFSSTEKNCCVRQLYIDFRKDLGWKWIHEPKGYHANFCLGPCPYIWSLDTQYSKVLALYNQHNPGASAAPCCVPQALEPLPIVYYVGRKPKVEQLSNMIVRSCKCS

## Abbv-151 (antibody)
[1]
  Kd: 0.98 nM
  koff: 0.000151 s⁻¹
  kon: 154000 M⁻¹ s⁻¹
[2]
  Kd: 4.39 nM
  koff: 0.00283 s⁻¹
  kon: 645000 M⁻¹ s⁻¹
